# Measured values from patent US20250019422A1 (MAX PLANCK GESELLSCHAFT ZUR F RDERUNG DER WISSENSCHAFTEN E V, published 2025).
# B1: Re32F02 (VHH)
# VHH: QVQLVESGGGLVSPGGSLKLSCAASGLTLDYYGIGWFRQVPGKEREGVSCLGVPDNRTLYAPSVKGRFTISRDNAKNTYYLEMNSLNPEDSAVYYCAAGPVVPGHMCRIPTPLGYDYWGQGTLVTVSS
# B2: Re32C08 (VHH)
# VHH: QVQLVESGGGLVQPGGSLRLSCETSGITLDYYAIGWFLQAPGKEREGVACMRNWDGSTVYAPSVKGRFTISRDNDKKAAYLEMNSLKSEDTGVYYCAAGPLPPGHSCRIPTPLGYDDWGQGTQVTVSS
# B3: Re32B02 (VHH)
# VHH: QVQLVESGGGLVQPGGSLRLSCATSGITLDYYAIGWFLQAPGKEREGVSCMRSSDGSTVYAPSVKGRFTISRDNAKKMVYLEMNSLKSEDTGVYYCAAGPLPPGTSCRIPTPLGYDDWGQGTQVTVSS
# B4: Ma6F06 (VHH)
# VHH: QVQLVESGGGLVQPGGSLRLSCATSGITLDYYAIGWFLQVPGKEREGVACMRNWDGSTLYAPSVKGRFTISRDADKEVAYLEMNSLKSEDTGVYYCAAGPLPPGHSCRIPTPLGYDDWGQGTQVTVSS
# B5: Re32E06 (VHH)
# VHH: QVQLVESGGGLVQPGGSLRLSCETSGITLDYYAIGWFLQAPGKEREGVACMRNWDGSTLYAPSVKGRFTISRDNDKKAVYLEMNSLKSEDTGVYYCAAGPLPPGHSCRIPTPLGYDDWGQGTQVTVSS
# B6: Re32G01 (VHH)
# VHH: QVQLVESGGGLVQPGGSLRLSCETSGITLDYYAIGWFLQAPGKDREGVACMRNWDGSTLYAPSVKGRFTISRDADKEVAYLEMNSLKSEDTGVYYCAAGPLPPGHSCRIPTPLGYDDWGQGTQVTVSS
# B7: Re32A10 (VHH)
# VHH: QVQLVESGGGLVQPGGSLRLSCATSGITLDYYAIGWFLQAPGKEREGVSCMRSSDGSTVYAPSVKGRFTISRDNAKKMVYLEMNSLKSEDTGVYYCAAGPLPPGTSCRIPTPLGYDDWGQGTQVTVSS
# B8: Re5D06R15 (VHH)
# VHH: QVQLVESGGGLVQPGGSLRLSCAASGITLDYYAMGWFREAPGKEREGVARIRNSDGSTNYADSVKGRFTMSRDNAKDTYYLQMNSLEPEDTADYYCAYGPLTKYGSSWYWPYEYDYWGQGTQVTVSS
# B9: Ma2E06 (VHH)
# VHH: QVQLVESGGDLVQPRGSLRLSCAASGITLDYYAIGWFRQAPGKEREGVSYISNTNDKTDYADSVKGRFTISRDNAENTVFLQMNSLQPEDTAVYYCATVPGTYYGGRWYYTWHPEAVRYWGKGTQVTVSS
# notes: also called Ma02E06
# B10: Re6H06 (VHH)
# VHH: QVQLVESGGGLVQPGGSLRLSCAASGVTLDYYAIGWFRQAPGKEREGVSCTSSSDGSTYYADSVKGRFTISRDNAKNTVYLQMNSLKPEDTGVYYCAVVPQTYYGGKYYSQCTANGMDYWGKGTLVTVSS
# B11: Re31A12 (VHH)
# VHH: QVQLVESGGGLVQSGGSLRLSCLTSGVTLDYYAIGWFRQAPGKEREGVSCTSSSDGSTNYSDSVKGRFIISRDNAKNTVYLQMNSLKPEDTAVYYCAVTPATYYGGRYYFQCPYHDMHYWGKGTLVTVSS
# B12: Re32D03 (VHH)
# VHH: QVQLVESGGGLVQPGGSLRLSCAISGITLDYYAVGWFLQAPGKEREGISCMRNWDGRTVYAPSVKGRFTISSDNAKKMVYLEMDNLKSEDTGVYYCAAGPLPPGISCRIPTPLGYDDWGQGTQVTVSS
# B13: Re9B09 (VHH)
# VHH: QVQLVESGGGLVQPGGSLRLSCAASGFTLDYYAIGWFRQAPGKEREGVSRISSSDGSTDYADSVKGRFTISRDNAKNTVYLQMNSLKPEDTAVYYCATVPGTYYSGNWYYTWHPEAVDYWGKGTQVTVSS
# notes: also called ReB09
# B14: Re31A08 (VHH)
# VHH: QVQLVESGGGLVQPGGSLRLSCAASGITLDYYSIGWFRQAPGKEREGVSCTSSRDDSTDYADSVKGRFTISRDNAKNSVYLQMNSLNPEDTAVYYCALTPATYYSGRYYFQCPPHGMDYWGKGTLVTVSS
# B15: Re5D06 (VHH)
# VHH: QVQLVESGGGLVQPGGSLRLSCAASGITLDYYAIGWFRQAPGKEREGVSRIRSSDGSTNYADSVKGRFTMSRDNAKNTVYLQMNSLKPEDTAVYYCAYGPLTKYGSSWYWPYEYDYWGQGTQVTVSS
# Biological target: T1, wt_RBD-AviHis (SARS-CoV-2 (original Wuhan strain))
# Test: BLI (Octet), biotinylated RBD on streptavidin biosensors, VHH in solution
row,Binder,Kd [nM]
1,B1,≤ 0.01
2,B2,≤ 0.01
3,B3,≤ 0.01
4,B4,≤ 0.01
5,B5,≤ 0.01
6,B6,0.016
7,B7,0.004
8,B8,≤ 0.01
9,B9,0.04
10,B10,≤ 0.01
11,B11,0.12
12,B12,≤ 0.01
13,B13,≤ 0.01
14,B14,0.06

# Biological target: T1, wt_RBD-AviHis
# Test: BLI: biotinylated wild type RBD immobilised, VHH in solution, mass transport fit
row,Binder,Kd [nM]
1,B15,≤ 0.01
2,B10,≤ 0.01

# Biological target: T1, wt_RBD-AviHis
# Test: as above
# Remark: another data set of the same source
row,Binder,Kd [nM]
1,B12,≤ 0.01
2,B13,0.03
